B1: wild type AcrB (Escherichia coli multidrug transporter AcrB) [E. coli] / itself (parent)
chain: MPNFFIDRPIFAWVIAIIIMLAGGLAILKLPVAQYPTIAPPAVTISASYPGADAKTVQDTVTQVIEQNMNGIDNLMYMSSNSDSTGTVQITLTFESGTDADIAQVQVQNKLQLAMPLLPQEVQQQGVSVEKSSSSFLMVVGVINTDGTMTQEDISDYVAANMKDAISRTSGVGDVQLFGSQYAMRIWMNPNELNKFQLTPVDVITAIKAQNAQVAAGQLGGTPPVKGQQLNASIIAQTRLTSTEEFGKILLKVNQDGSRVLLRDVAKIELGGENYDIIAEFNGQPASGLGIKLATGANALDTAAAIRAELAKMEPFFPSGLKIVYPYDTTPFVKISIHEVVKTLVEAIILVFLVMYLFLQNFRATLIPTIAVPVVLLGTFAVLAAFGFSINTLTMFGMVLAIGLLVDDAIVVVENVERVMAEEGLPPKEATRKSMGQIQGALVGIAMVLSAVFVPMAFFGGSTGAIYRQFSITIVSAMALSVLVALILTPALCATMLKPIAKGDHGEGKKGFFGWFNRMFEKSTHHYTDSVGGILRSTGRYLVLYLIIVVGMAYLFVRLPSSFLPDEDQGVFMTMVQLPAGATQERTQKVLNEVTHYYLTKEKNNVESVFAVNGFGFAGRGQNTGIAFVSLKDWADRPGEENKVEAITMRATRAFSQIKDAMVFAFNLPAIVELGTATGFDFELIDQAGLGHEKLTQARNQLLAEAAKHPDMLTSVRPNGLEDTPQFKIDIDQEKAQALGVSINDINTTLGAAWGGSYVNDFIDRGRVKKVYVMSEAKYRMLPDDIGDWYVRAADGQMVPFSAFSSSRWEYGSPRLERYNGLPSMEILGQAAPGKSTGEAMELMEQLASKLPTGVGYDWTGMSYQERLSGNQAPSLYAISLIVVFLCLAALYESWSIPFSVMLVVPLGVIGALLAATFRGLTNDVYFQVGLLTTIGLSAKNAILIVEFAKDLMDKEGKGLIEATLDAVRMRLRPILMTSLAFILGVMPLVISTGAGSGAQNAVGTGVMGGMVTATVLAIFFVPVFFVVVRRRFSRKNEDIEHSHTVDHH

Variants of: B1
Assay: BN-PAGE
Details: with itself; read off a plot

Q: With chain 1 D788K P223G as the variant, how does the screen value read?
A: The screen value was 0.15.

Q: With chain 1 A209V P223G as the variant, how does the screen value read?
A: Its screen value is 0.4.

Q: With chain 1 M662I P223G as the variant, how does the screen value read?
A: The screen value was 0.19.

Q: chain 1 T199M P223G was tested. Which screen value did it give?
A: The screen value was 0.7.

Q: chain 1 P800S P223G was tested. Which screen value did it give?
A: The screen value was 0.11.

Q: chain 1 D256N P223G was tested. Which screen value did it give?
A: Its screen value is 0.41.

Q: Which screen value does the source give for chain 1 E810K P223G here?
A: Its screen value is 0.11.

Q: chain 1 G257V P223G was tested. Which screen value did it give?
A: Its screen value is 0.15.

Q: For chain 1 Q737L P223G, which screen value is on record?
A: Its screen value is 0.075.

Q: For chain 1 P223G, which screen value is on record?
A: Its screen value is 0.26.

— article PMC4303003
